US20250057951A1, “DISCERNIBLE CELL SURFACE PROTEIN VARIANTS OF CD117 FOR USE IN CELL THERAPY” (UNIVERSITÄT BASEL, priority 2021, published 2025)
Residue numbers refer to the chain shown, from its start. Names may count otherwise. “Also recorded” adds a separate entry of the source. Blank lines part the entries; values can stand above or below the molecule they belong to.

Key:
[1] = tested on: antibody Refmab #1; test: Octet screen: binding of CD117 D1-2-3 variants to captured Refmab #1; conditions: nm shift at end of association, top analyte concentration (500 nM)
Description: (§1) A more sophisticated analysis of binding to the elected variants was performed with antibody Refmab #1. Binding of Refmab #1 to wt and variants (analyte) was measured in an Octet system RED96e or R8 at 25° C. with shaking at 1,000 rpm using 1× kinetic buffer (Sartorius, PN: 18-1105). First, the elected variants were screened for their ability to bind Refmab #1 using three different concentrations of analytes. Antibody Refmab #1 was captured by Anti-Human Fc capture biosensor (AHC) (Sartorius, PN: 18-5060) for 300 s at 0.5 to 1 μg/mL. As an analyte, human CD117 wt and variants, containing only domains 1, 2 and 3 (CD117 D1-2-3), was titrated at 500 nM, 50 nM and 5 nM. Association and dissociation of the analyte to Refmab #1 was monitored for 300 s and 900 s, respectively. Reference subtraction was performed against buffer only wells. AHC tips were regenerated using 10 mM Gly-HCl pH 1.7. Data were analyzed using the Octet Data Analysis software HT 12.0. Data were fitted (when possible) to a 1:1 binding model. Kinetic rates ka and […] globally fitted. Binding level of the elected variants were compared to wild type and are shown as percent in FIG. 7. For this qualitative analysis, the binding level of the top analyte concentration at end of the association step was used.

[2] = target: antibody Refmab #1; test: Octet titration, steady state KD of CD117 D1-2-3 variants to Refmab #1; format: binding; conditions: for Kd: 7 concentrations 2000-5 nM, steady state, two individual experiments
Description: To further characterize binding of Refmab #1 to CD117 D1-2-3 variants E73K, E73L, E73R, E73Y, D121H, D121K, S123K and S123F, the analytes were titrated at 7 different concentrations (from 2000 nM to 5 nM). Antibody Refmab #1 was captured by AHC biosensors for 300 s at 0.5 to 1 μg/mL. Association and dissociation to Refmab #1 was extended to 600 s and 1000 s, respectively. Steady state analysis was performed.

[3] = tested on: TF-1 cells; test: SCF-dependent proliferation, SCF titration on TF-1 cells with CD117 variants (CellTiter-Glo); format: cell-based, human; conditions: for EC50 Average: average of two experiments; for EC50 Experiment #1 / EC50 Experiment #2: titration of SCF, 3 days, TF-1 cells with the CD117 variant
Description: In another experiment, SCF-dependent proliferation of variants E73K, E73Y, D121K, S123F and S123K was compared against wildtype CD117. TF-1 cells were seeded at a cell concentration of 150 000 cells/ml in sterile, white cell culture treated plates with transparent bottom in RPMI+GlutaMax+10% FCS. Cells were treated with a titration of SCF. After 3 days of incubation a CellTiter-Glo 2.0 assay (Promega) was performed, luminescence was read in a luminometer (Envision plate reader) and EC50's was determined. Two different experiments with triplicates in each experiment were performed.

[4] = tested on: Refmab #1; test: Refmab #1 titration on engineered TF-1 cells (flow cytometry); format: binding; conditions: 5-0.00015 μg/mL antibody; 4° C.
Description: Binding of Refmab #1 was assessed in a flow cytometry assay. TF-1 cells were seeded at a cell concentration of 1,000,000 cells/ml in FACS Buffer (PBS+2% FCS+1 mM EDTA). After a Fc blocking using 1:20 diluted TruStain (BioLegend, #422302) in FACS buffer for 15 minutes at 4° C., cells were washed twice with FACS buffer. Subsequently, a SR-1 titration was added to the cells using 5-0.00015 μg/mL antibody for 30 minutes at 4° C. on a plate shaker. Cells were washed twice with FACS buffer and a secondary labelled antibody (IgG (H+L) Cross-Adsorbed Goat anti-Human, Alexa Fluor® 488, Invitrogen, A11013) was added to the cells for 30 minutes at 4° C. on a plate shaker. Cells were washed twice with FACS buffer, before adding 1:100 diluted solution of 7AAD staining (cell viability) in FACS buffer for a couple of minutes and analyzing the cells using the Novocyte Quanteon (Agilent).

[5] = tested on: CD117; test: Gene editing of CD117 in TF-1 cells, loss of SR-1 binding by FACS; format: cell-based, human; conditions: FACS 7 days after electroporation with Cas9, crRNA/tracrRNA or sgRNA and HDR template
Description: Gene editing of CD117 was performed in TF-1 cells using HDR. 12 different crRNAs were tested, six of them targeting amino acid residue E73 (Table 3), and six of them targeting amino acid residues 120-123 (Table 3).
Binding of antibody SR-1 to TF-1 cells was measured by FACS 7 days after electroporation with Cas9 protein, crRNA/tracrRNA or sgRNA and HDR template (Table 4).

[6] = target: human wild-type CD117 (human, UniProt P10721 26-976); test: cell-based or functional assay
[7] = target: T1, Biotinylated Avitag-hSCF (human, UniProt P21583 26-190, limits assumed, biotinylated Avitag); test: BLI (Octet), steady state: biotinylated SCF on streptavidin biosensor, CD117 D1-2-3 variant as analyte; KD relative to WT
T1 construct: Bought reagent; also called hSCF (Acros Biosystems SCF-H82E1)
Description: Association was monitored for 300 s and dissociation for 600 s. […] Reference subtraction was performed against buffer only wells. Biosensors were not regenerated and a new set of SA biosensors was used for each analyte. Data were analyzed using the Octet Data Analysis software HT 12.0. Steady state data analysis was performed due to the fast on/off nature of the interaction.

[8] = tested on: Refmab #3; test: Octet: binding of CD117 variants to Refmab #3; conditions: qualitative Octet analysis
Description: as §1
A similar experiment to that in Example 7 was performed, but utilizing Refmab's #2 and #3.

[9] = target: T2, SCF (Homo sapiens, UniProt P21583); test: Octet: binding of CD117 D1-2-3 variants to SCF; conditions: CD117 D1-2-3 constructs; for KD increase of SCF binding compared to wild type CD117: steady state
T2 construct: purchased Acros Biosystems SCF-H82E1
Description: SCF binding is one function of CD117. SCF binding is important for the transmission of functional signals by CD117. Binding of the elected variants to SCF was measured on an Octet system RED96e or R8 at 25° C. with shaking at 1000 rpm using 1× Kinetic Buffer (Sartorius, PN: 18-1105). […] Domain 1, 2, 3 comprise the binding site for SCF. Domains 4 and 5 were used as a negative, non-binding control.
CD117 D1-2-3 wt and variants thereof are titrated with different concentrations from 1000 to 5 nM. Association was monitored for 300 s and dissociation for 600 s. Binding to human CD117 domain 4 and 5 (CD117 D4-5) was performed under the same conditions as non-binding control. Reference subtraction was performed against buffer only wells. Biosensors were not regenerated and a new set of SA biosensors was used for each analyte. Data were analyzed using the Octet Data Analysis software HT 12.0. Steady state data analysis was performed due to the fast on/off nature of the interaction.

T2 sequence (P21583 26-273): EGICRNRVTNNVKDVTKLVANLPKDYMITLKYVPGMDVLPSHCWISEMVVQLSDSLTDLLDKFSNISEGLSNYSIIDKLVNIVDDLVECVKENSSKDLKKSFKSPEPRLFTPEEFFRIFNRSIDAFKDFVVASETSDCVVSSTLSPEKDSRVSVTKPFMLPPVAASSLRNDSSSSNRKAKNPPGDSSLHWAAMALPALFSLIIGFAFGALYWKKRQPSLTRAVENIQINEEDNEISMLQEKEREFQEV
Chain of antibody Refmab #1 (as listed by the source, one chain of several): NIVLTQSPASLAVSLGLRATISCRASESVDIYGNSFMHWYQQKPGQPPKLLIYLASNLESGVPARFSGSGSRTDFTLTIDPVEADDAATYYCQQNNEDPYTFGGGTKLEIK
Chain of Refmab #3 (as listed by the source): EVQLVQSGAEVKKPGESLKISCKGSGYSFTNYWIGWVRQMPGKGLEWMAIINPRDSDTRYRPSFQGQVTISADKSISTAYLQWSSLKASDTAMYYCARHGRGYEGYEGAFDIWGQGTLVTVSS
Chain of Refmab #3 (as listed by the source): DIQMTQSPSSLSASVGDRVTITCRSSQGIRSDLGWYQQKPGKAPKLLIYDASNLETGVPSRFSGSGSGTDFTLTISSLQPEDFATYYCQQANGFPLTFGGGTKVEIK
Chain of Refmab #1 (as listed by the source, one chain of several): as the sequence (as listed by the source, one chain of several) above
T1 sequence (P21583 26-190 limits assumed): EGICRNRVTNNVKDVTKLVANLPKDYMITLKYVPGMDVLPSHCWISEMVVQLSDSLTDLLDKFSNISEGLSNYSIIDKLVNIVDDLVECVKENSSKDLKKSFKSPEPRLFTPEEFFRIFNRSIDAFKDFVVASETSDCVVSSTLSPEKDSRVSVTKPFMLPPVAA

- binding to Refmab #1 compared to wild type [1]: particular strong decrease in binding
- Kd [2]: 691 nM
- change of KD compared to wild type CD117 ([2]; KD variant vs wild type): around 700 fold
Molecule: E73Y: variant of human CD117 with substitution E73Y
- EC50 Average [3]: 4.01 ± 0.37 ng/mL
- EC50 Experiment #1 [3]: 4.37 ng/mL
- EC50 Experiment #2 [3]: 3.64 ng/mL
- Binding of Refmab #1 to TF-1 cells expressing the CD117 variant [4]: completely abolished

Molecule: KIT_120_123_4: crRNA CTTGTTGACCGCTCCTTGTA, SEQ ID NO: 12, targets residues 120-123 of CD117 (chemistry not given here)
- KnockOut Efficiency (loss of binding of SR-1 compared to wild type cells) [5]: 60.0%

- Kd [2]: 1 nM
Molecule: wild type CD117: wild type human CD117 (SEQ ID No. 1); recombinant D1-2-3 construct or expressed in TF-1 cells [reference compound]
- EC50 Average [3]: 4.18 ± 0.04 ng/mL
- EC50 Experiment #1 [3]: 4.14 ng/mL
- EC50 Experiment #2 [3]: 4.22 ng/mL
- Binding of Refmab #1 to TF-1 cells expressing the CD117 variant [4]: bound

- IC50 in a SCF-dependent proliferation assay on HSPC's [6]: 5.21 ng/mL
- IC50 in a SCF-dependent proliferation assay on TF-1 cells [6]: 17.6 ng/mL
B1: Refmab #1-Ernie (antibody, V domains shown)
VH: QVQLQQPGAELVKPGASVKMSCKASGYTFTSYNMHWVKQTPGQGLEWIGVIYSGNGDTSYNQKFKGKATLTADKSSSTAYMQINSLTSEDSAVYYCARERDTRFGNWGQGTLVTVSA
VL: EIVLTQSPSSLSASVGDRVTITCRASESVDIYGESFMHWYQQKPGKAPKLLIYLASNLESGVPSRFSGSGSGTDFTLTISSLQPEDFATYYCQQNNEEPYTFGQGTKLEIKR

- IC50 in a SCF-dependent proliferation assay on HSPC's [6]: 31.3 ng/mL
- IC50 in a SCF-dependent proliferation assay on TF-1 cells [6]: 44.1 ng/mL
B2: Refmab #1-Bert (antibody, V domains shown)
VH: B1 VH
VL: B1 VL with N96K

- binding result [7]: binds
- binding to Refmab #3 compared to wild type CD117 [8]: strong decrease in binding
B3: Y259G (receptor)
extracellular domains 1, 2 and 3: QPSVSPGEPSPPSIHPGKSDLIVRVGDEIRLLCTDPGFVKWTFEILDETNENKQNEWITEKAEATNTGKYTCTNKHGLSNSIYVFVRDPAKLFLVDRSLYGKEDNDTLVRCPLTDPEVTNYSLKGCQGKPLPKDLRFIPDPKAGIMIKSVKRAYHRLCLHCSVDQEGKSVLSEKFILKVRPAFKAVPVVSVSKASYLLREGEEFTVTCTIKDVSSSVYSTWKRENSQTKLQEKGNSWHHGDFNYERQATLTISSARVNDSGVFMCYANNTFGSANVTTTLEVVD
notes: not in the list MOLECULES; also called human CD117 D1-2-3 variant Y259G

- binding to Refmab #1 compared to wild type [1]: strong decrease in binding
B4: S123V: variant of human CD117 with substitution S123V (protein)
chain: QPSVSPGEPSPPSIHPGKSDLIVRVGDEIRLLCTDPGFVKWTFEILDETNENKQNEWITEKAEATNTGKYTCTNKHGLSNSIYVFVRDPAKLFLVDRVLYGKEDNDTLVRCPLTDPEVTNYSLKGCQGKPLPKDLRFIPDPKAGIMIKSVKRAYHRLCLHCSVDQEGKSVLSEKFILKVRPAFKAVPVVSVSKASYLLREGEEFTVTCTIKDVSSSVYSTWKRENSQTKLQEKYNSWHHGDFNYERQATLTISSARVNDSGVFMCYANNTFGSANVTTTLEVVDKG
- binding to SCF [9]: binding to SCF, albeit to a slightly lower degree
- KD increase of SCF binding compared to wild type CD117 [9]: less than three-fold; also recorded: less than four-fold

B5: K127L: variant of human CD117 with substitution K127L (protein)
chain: B4 chain with V98S, K102L
- binding to SCF [9]: binding to SCF, albeit to a slightly lower degree

- binding to Refmab #3 compared to wild type CD117 [8]: strong decrease in binding
B6: Y259P: variant of human CD117 with substitution Y259P (protein)
chain: B4 chain with V98S, Y234P
- KD increase of SCF binding compared to wild type CD117 [9]: less than three-fold; also recorded: less than four-fold

- binding to Refmab #3 compared to wild type CD117 [8]: complete loss of binding
B7: S261Q: variant of human CD117 with substitution S261Q (protein)
chain: B4 chain with V98S, S236Q

- binding to Refmab #3 compared to wild type CD117 [8]: complete loss of binding
B8: S261E: variant of human CD117 with substitution S261E (protein)
chain: B4 chain with V98S, S236E

- binding to Refmab #3 compared to wild type CD117 [8]: strong decrease in binding
B9: Y259A: variant of human CD117 with substitution Y259A (protein)
chain: B4 chain with V98S, Y234A

B10: Y259E: variant of human CD117 with substitution Y259E (protein)
chain: B4 chain with V98S, Y234E
- binding to SCF [9]: binding to SCF, albeit to a slightly lower degree
- KD increase of SCF binding compared to wild type CD117 [9]: less than three-fold; also recorded: less than four-fold
